Test results as given in the supplement of paper PMC7877785.
± gives the uncertainty stated by the source.

Assay: self-splicing fitness, log relative to wild type (ln ratio); higher = more splicing; Tetrahymena group I intron in knt gene, E. coli kanamycin selection, DiMSum; sequences stand for … in CUCUCU…GGAGGGAAAAGUUAUCAGGCAUGCACCUGGUAGCUAGUCUUUAAACCAAUAGAUUGCAUCGGUUUAAAAGGCAAGACCGUCAAAUUGCGGGAAAGGGGUCAACAGCCGUUCAGUACCAAGUCUCAGGGGAAACUUUGAGAUGGCCUUGCAAAGGGUAUGGUAAUAAGCUGACGGACAUGGUCCUAACCACGCAGCCAAGUCCUAAGUCAACAGAUCUUCUGUUGAUAUGGAUGCAGUUCACAGACUAAAUGUCGGUCGGGGAAGAUGUAUUCUUCUCAUAAGAUAUAGUCGGACCUCUCCUUAAUGGGAGCUAGCGGAUGAAGUGAUGCAACACUGGAGCCGCUGGGAACUAAUUUGUAUGCGAAAGUAUAUUGAUUAGUUUUGGAGUACUCGUGGUCG
In short: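 Library with all eight P1ex-region intron nucleotides randomised, intron inside the knt kanamycin-resistance gene on pET-22b(+), in E. coli BL21(DE3). Cells grew overnight at 37°C or 30°C on LB agar with or without 25 μg/mL kanamycin (plus 100 μg/mL carbenicillin, 50 μM IPTG, 0.2% rhamnose), in six replicate transformations. Pooled colonies were amplicon-sequenced on Illumina HiSeq 2500. DiMSum fitness is the error-weighted combination of wild-type-normalised replicate fold changes, kanamycin versus none.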

Sequence | self-splicing fitness (ln) (30 °C) | self-splicing fitness (ln) (37 °C)
GCUAAGCAAUAUUACGGCGC | -1.55 ± 0.11 | -0.159 ± 0.16
GCUAAGCAAUAUUACGGCGU | -0.935 ± 0.068 | -0.141 ± 0.091
GCUAAGCAAUAUUACGGCUA | -0.811 ± 0.093 | -0.399 ± 0.11
GCUAAGCAAUAUUACGUCGG | -1.33 ± 0.099 | -0.876 ± 0.13
GCUAAGCAAUAUUACGUGAU | -1.18 ± 0.073 | -0.96 ± 0.11
GCUAAGCAAUAUUACGUUAC | -3.73 ± 0.26 | -1.01 ± 0.16
GCUAAGCAAUAUUACGUUCA | -1.08 ± 0.07 | -0.54 ± 0.092
GCUCAGCAAUAUUACGAAAU | -1.13 ± 0.11 | -0.319 ± 0.12
GCUCAGCAAUAUUACGACAU | -0.812 ± 0.012 | -0.159 ± 0.032
GCUCAGCAAUAUUACGACGG | -2.33 ± 0.18 | -1.3 ± 0.16
GCUCAGCAAUAUUACGAGUA | -0.337 ± 0.098 | -0.433 ± 0.1
GCUCAGCAAUAUUACGAGUC | -4.08 ± 0.26 | 
GCUCAGCAAUAUUACGAUAC | -1.15 ± 0.13 | -0.697 ± 0.17
GCUCAGCAAUAUUACGAUAU | -0.622 ± 0.084 | 0.0543 ± 0.09
GCUCAGCAAUAUUACGAUGU | 0.0549 ± 0.065 | -0.345 ± 0.077
GCUCAGCAAUAUUACGCAAG | -2.83 ± 0.42 | -1.69 ± 0.23
GCUCAGCAAUAUUACGCAUA | -1.48 ± 0.18 | 0.283 ± 0.17
GCUCAGCAAUAUUACGCUAG | -1.03 ± 0.075 | -0.659 ± 0.11
GCUCAGCAAUAUUACGGACU | 0.158 ± 0.12 | 0.485 ± 0.19
GCUCAGCAAUAUUACGGCAU | -2.29 ± 0.2 | -1.72 ± 0.15

Sequence | self-splicing fitness (ln) (30 °C) | self-splicing fitness (ln) (37 °C)
GCUCAGCAAUAUUACGGGCC | -2.8 ± 0.2 | -3.37 ± 0.25
GCUCAGCAAUAUUACGGGGU | -3.51 ± 0.15 | -1.39 ± 0.14
GCUCAGCAAUAUUACGGGUC | -3.6 ± 0.22 | -2.91 ± 0.23
GCUCAGCAAUAUUACGGUCA | -1.12 ± 0.09 | -0.085 ± 0.082
GCUCAGCAAUAUUACGUAAC | -1 ± 0.087 | -0.439 ± 0.11
GCUCAGCAAUAUUACGUCGA | -3.22 ± 0.17 | -2.45 ± 0.16
GCUCAGCAAUAUUACGUCGC | -1.95 ± 0.17 | -0.137 ± 0.16
GCUCAGCAAUAUUACGUGCU | -2.26 ± 0.086 | -0.582 ± 0.09
GCUCAGCAAUAUUACGUGGC | -3.61 ± 0.19 | -2.79 ± 0.3
GCUGAGCAAUAUUACGAAGA | -2.11 ± 0.21 | -0.81 ± 0.17
GCUGAGCAAUAUUACGACGU | -1.45 ± 0.057 | -0.232 ± 0.064
GCUGAGCAAUAUUACGACUC | -0.148 ± 0.2 | -0.469 ± 0.21
GCUGAGCAAUAUUACGAUAG | -1.35 ± 0.25 | -1.83 ± 0.26
GCUGAGCAAUAUUACGAUUA | -2.88 ± 0.37 | -0.431 ± 0.38
GCUGAGCAAUAUUACGCCAC | -4.02 ± 0.27 | -2.27 ± 0.26
GCUGAGCAAUAUUACGCCCG | -2.34 ± 0.27 | -0.207 ± 0.42
GCUGAGCAAUAUUACGCGUA |  | -2.23 ± 0.37
GCUGAGCAAUAUUACGCUAA | -3.04 ± 0.32 | 
GCUGAGCAAUAUUACGGAGA | -2.79 ± 0.43 | -1.85 ± 0.28
